Data on one molecule can be found in patent publication US20250333749A1, “INDUCIBLE PROMOTER, VECTOR AND HOST CELL BASED THEREON” (JOINT STOCK COMPANY «BIOCAD», priority 2021, published 2025).

Assay [1] concerns HEK293_STAT3-STAT5-AP1_FLuc_AXL cells (AXL receptor). Briefly: GAS6-dependent AXL-mediated activation of reporter cell line HEK293_STAT3-STAT5-AP1_FLuc_AXL. The format is cell-based. Conditions: GAS6 2 μg/ml. The procedure: (§1) To generate the reporter cell line HEK293_STAT3-STAT5-AP1_FLuc_AXL, we used three clones of the universal reporter cell line HEK293_STAT3-STAT5-AP1_FLuc: cl. D1, cl. B3 and cl. C4 #2; on the basis of them, we produced, respectively, 3 pools of cells with an embedded constitutionally expressed AXL receptor gene. AXL-mediated activation of these pools was tested. The test was performed in a 96-well culture plate designed for luminescence assays. […] The final volume of the cell suspension in a well was 100 μl, all components of the suspension were prepared in DMEM medium free of fetal bovine serum. After adding all the components, the plate was incubated for 16 hours at 37° C., 5% CO2, and then, using a luminescence assay kit, we measured the luminescence intensity in the wells. The measurement was carried out using a plate reader. The activation level was calculated as the ratio of luminescence level for a given pool in the presence of GAS6 to luminescence level in the absence of GAS6.
B3 and cl. […] D1. […]
The test was performed similarly to the procedure described in Example 7, we used the cells of the reporter line HEK293_STAT3-STAT5-AP1_FLuc_AXL (cl.13) and GAS6 at a concentration of 2 μg/ml (FIG. 11) for activation; following adding all the components, the plate was incubated for the time shown in the graph, the luminescence intensity in the wells was then determined. […]

In assay [2] the test system is HEK293_AXL_STAT3-STAT5-AP1 cells (AXL overexpresser). Briefly: GAS6 activation of reporter cell line HEK293_AXL_STAT3-STAT5-AP1 as a function of cell count. The class given is cell-based. The conditions noted are these: GAS6 2 μg/ml; 96-well plate; FIG. 17. As for the experimental part: as §1
To create the reporter cell line HEK293_AXL_STAT3-STAT5-AP1_FLuc, we used the cell line HEK293_AXL, an AXL overexpresser, on the basis of which we produced a pool of cells comprising a gene encoding firefly luciferase under the control of STAT3-STAT5-AP1 promoter. […] The test was performed in a similar fashion to the procedure described in Example 7, at a concentration of GAS6 of 2 μg/ml. […]

B1: GAS6: the AXL ligand GAS6; activator of AXL-dependent cell signaling (protein)
chain: AFQVFEEAKQGHLERECVEELCSREEAREVFENDPETDYFYPRYLDCINKYGSPYTKNSGFATCVQNLPDQCTPNPCDRKGTQACQDLMGNFFCLCKAGWGGRLCDKDVNECSQENGGCLQICHNKPGSFHCSCHSGFELSSDGRTCQDIDECADSEACGEARCKNLPGSYSCLCDEGFAYSSQEKACRDVDECLQGRCEQVCVNSPGSYTCHCDGRGGLKLSQDMDTCEDILPCVPFSVAKSVKSLYLGRMFSGTPVIRLRFKRLQPTRLVAEFDFRTFDPEGILLFAGGHQDSTWIVLALRAGRLELQLRYNGVGRVTSSGPVINHGMWQTISVEELARNLVIKVNRDAVMKIAVAGDLFQPERGLYHLNLTVGGIPFHEKDLVQPINPRLDGCMRSWNWLNGEDTTIQETVKVNTRMQCFSVTERGSFYPGSGFAFYSLDYMRTPLDVGTESTWEVEVVAHIRPAADTGVLFALWAPDLRAVPLSVALVDYHSTKKLKKQLVVLAVEHTALALMEIKVCDGQEHVVTVSLRDGEATLEVDGTRGQSEVSAAQLQERLAVLERHLRSPVLTFAGGLPDVPVTSAPVTAFYRGCMTLEVNRRLLDLDEAAYKHSDITAHSCPPVEPAAA
Turning to B1, the “Level of GAS6-dependent activation (activation relative to non-activated cells)” value in assay [1] (well H11 = initial pool (based on cl. D1)) was 3.61. Also, in assay [1] (cl.13, FIG. 11), the “incubation time with the highest level of activation” value was 24 h. In assay [2], the “cell count per well with the highest level of activation” value was 25,000-50,000 cells.
